Laboratory results published in the supplement of paper PMC9170038.

Legend:
MS2 coat protein = experiment: apparent KD of MS2 coat protein; higher = weaker reporter binding; conditions: Eterna round: R107
Procedure: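 RNA-MaP round R107: designed RNA switches with theophylline, tryptophan, arginine or FMN aptamers are transcribed on-chip within common flanks. They are titrated with SNAP-549-labelled MS2 coat protein in RNA-MaP buffer (100 mM Tris pH 7.5, 80 mM KCl, 4 mM MgCl2), without ligand or with the indicated ligand. Median apparent KD per design.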

[1] = test system: K4 kissing-loop RNA reporter; experiment: apparent KD of K4 kissing-loop reporter; higher = weaker reporter binding; conditions: Eterna round: R107;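 note: bound reporter read as fluorescence of individual clusters on recovered sequencing chips by microscopy, with normalized cluster intensities fitted with a binding model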
Procedure: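 RNA-MaP round R107: designed RNA switches with theophylline, tryptophan, arginine or FMN aptamers are transcribed on-chip within common flanks. They are titrated with a labelled K4 kissing-loop RNA reporter in RNA-MaP buffer (100 mM Tris pH 7.5, 80 mM KCl, 4 mM MgCl2), without ligand or with the indicated ligand. Median apparent KD per design.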

[2] = input ligand: theophylline 20 uM
[3] = input ligand: theophylline 2 mM
[4] = input ligand: tryptophan 2.4 mM

Row | Sequence | apparent KD of MS2 coat protein (MS2 coat protein; input ligand: arginine 13.2 mM) | apparent KD of MS2 coat protein (MS2 coat protein; input ligand: none) | apparent KD of MS2 coat protein (MS2 coat protein; [2]) | apparent KD of MS2 coat protein (MS2 coat protein; [3]) | apparent KD of MS2 coat protein (MS2 coat protein; [4]) | apparent KD of K4 kissing-loop reporter ([1]; input ligand: FMN 200 uM) | apparent KD of K4 kissing-loop reporter ([1]; input ligand: arginine 13.2 mM) | apparent KD of K4 kissing-loop reporter ([1]; input ligand: none) | apparent KD of K4 kissing-loop reporter [1, 2] | apparent KD of K4 kissing-loop reporter [1, 4]
1 | AAAACUCAUGGCUUAUAUCCGUGUCUCGAAGGAGCGUACAGCGGUACAGGUAGGUCGCGAGACAUGAGGAUCACCCAUGUGUAAA [XArg-A 20 V1&2 original #dotplot2>1] | 22.3 nM | 38.1 nM | 119 nM | 1.46 nM | 0.526 nM |  |  |  |  | 
2 | AAAAGAGGUGGAAGGAGCGGGAGACAUGAGGAUCACCCAUGUGAUGUUACGAAAGGUUCAGCCCAGGUAGGUCGCCAUGUCGAAA [zczzmullin] | 36.6 nM | 46.8 nM | 268 nM | 175 nM | 34.7 nM |  |  |  |  | 
3 | AAAAUAAAAUAAAAGGUGGAAAUAAGGCGGCGAGGACCGGUACGGCCGCCACUCGCGUACAUGAGGAUCACCCAUGUCUGAAAAU [Same State - Tryptophan A (Freestyle 1)] | 20.3 nM |  | 28.2 nM | 26.6 nM |  |  |  |  |  | 
4 | AAAAUAAAGGCGGCCGCCACUAGAGUUAGGCUUAUGUACUGGGUAACAUGAGGAUCACCCAUGUAUAGGACCGGGCCAUAAUAAA [Same State - Tryptophan B (Freestyle 2)] | 28 nM | 57.3 nM | 82.1 nM | 73 nM | 66.5 nM |  |  |  |  | 
5 | AAAAUAAAUAAAACACGUAACAUGAAGGAUACCAGCCAGAAAACUGGCCCUUGGCAGCCUCUACAUGAGGAUCACCCAUGUCGUG [Mat - Same State Theophlline A - Mod of Eli - D16] | 156 nM |  | 114 nM |  | 293 nM |  |  |  |  | 
6 | AAAAUAUACGGAAGGAGCGUGUAAGAUUAAGAACAUGAGGAUCACCCAUGUUUUAAGGGAACACAGGUAGGUCGCCGUAUAUAAA [11.N] | 12.9 nM | 11.9 nM | 11.6 nM | 10.3 nM | 11.8 nM |  |  |  |  | 
7 | AAACAUGAGGAUCACCCAUGUAAAGUUGAAGGAGCGACCAGAGGGUCAGGUAGGUCGCAACACAUGAGGAUCACCCAUGUAUCGA [DOUBLE!!! :-D #5] | 41.3 nM | 96.5 nM | 88.5 nM | 91.6 nM | 72.7 nM |  |  |  |  | 
8 | AAACAUGAGGAUCACCCAUGUAUACUUAGACGAGGACCGGUACGGCCGCCACUCGAACUUCAAGAUUUGGCGGAUAAUGUAUGUA [JR_Nu22_ExcTryptoA_Sub023] | 9.74 nM | 10.9 nM | 16.1 nM | 11.9 nM | 11.9 nM |  |  |  |  | 
9 | AAACAUUGCUCAGAUACCAGACAUGAGGAUCACCCAUGUACCAAGGUAACCGAAAGGCAUGUCCCUUGGCAGCUGAGCAAUGAAA [MAT - Exclusion Theophlline B - Mod of Eli - D15] | 13.5 nM |  | 17.4 nM |  | 13 nM |  |  |  |  | 
10 | AAACCAAGGGAUGGGUGCCUUGGUAGUGAUACCAGCCUGGAAACAGGCCCUUGGCAGCACAUGAGGAUCACCCAUGUGAAAUAAU [TheoAX 18#OpenEnded] | 22.9 nM | 27.7 nM | 89.6 nM | 69.2 nM | 46.6 nM |  |  |  |  | 
11 | AAACGUUGCUGCGAUACCAGACAUGAGGAUCACCCAUGUACCAAGGUACGAAUAUAACAUGUCCCUUGGCAGCGCAGCAACGAAA [MAT - Exclusion Theophlline B - Mod of Eli - D7] | 17.5 nM |  | 22.7 nM |  | 13.6 nM |  |  |  |  | 
12 | AAACUGAUCUUCAGGAGUCACUAUAUCUCCCGAGGACCGGUACGGCCGCCACUCGAACGUUUACAUGAGGAUCACCCAUGUGACU [theeternabot_exclusion_MS2_Trp_A_4] | 13.6 nM |  | 16.4 nM | 14.9 nM |  |  |  |  |  | 
13 | AAAUAAAUAACUGAUACCAGUGUACUGACAUGAGGAUCACCCAUGUUGGGUUUUGUUGUACACCCUUGGCAGCAGAAAUAUAAAA [AstrosExyTheB#1] | 28.7 nM |  | 41.2 nM |  | 37.9 nM |  |  |  |  | 
14 | AAAUAAAUACAUGAGGAUCACCCAUGUGAAGGAGCGCCCGUUAGGGCAGGUAGGUCGCACAUGAAAGGGAAGCGAAAGAAAUAAU [ArgEX 15 #OpenEnded] | 26.8 nM | 20.2 nM | 24.5 nM | 16.5 nM | 20.3 nM |  |  |  |  | 
15 | AAAUAAAUACAUGAGGAUCACCCAUGUGAAGGAGCGCCCGUUAGGGCAGGUAGGUCGCACAUGAACUCCAAGCGAAAGAAAUAAU [ArgEX 16 #OpenEnded] | 23.6 nM | 18.3 nM | 23.9 nM | 22.7 nM | 16.4 nM |  |  |  |  | 
16 | AAAUAAAUACAUGAGGAUCACCCAUGUGAAGGAGCGCCCGUUAGGGCAGGUAGGUCGCACAUGAAUAACUCCGCGCGAAAGCGCA [MAT - Exclusion Arginine A - Mod of Eli - D10] | 41.8 nM | 38.7 nM | 37.1 nM | 52.6 nM | 35.8 nM |  |  |  |  | 
17 | AAAUAGGUAGGAGAUACCAGAUACGUUAACAUGAGGAUCACCCAUGUGUAUGCACUUAGUGUCCCUUGGCAGCUCGAGGAUCUGG [#18 Same State - Theophylline B] | 23.3 nM |  | 37 nM |  | 27.4 nM |  |  |  |  | 
18 | AAAUUAUAGGCGGCCGCCACUAGAGUUAGGCUUAUGUACUGGGUAACAUGAGGAUCACCCAUGUAUAGGACCGGGCCAUAAUAAA [Same State - Tryptophan B (Freestyle 3)] | 46.9 nM |  | 76.2 nM | 63.5 nM |  |  |  |  |  | 

Row | Sequence | apparent KD of MS2 coat protein (MS2 coat protein; input ligand: arginine 13.2 mM) | apparent KD of MS2 coat protein (MS2 coat protein; input ligand: none) | apparent KD of MS2 coat protein (MS2 coat protein; [2]) | apparent KD of MS2 coat protein (MS2 coat protein; [3]) | apparent KD of MS2 coat protein (MS2 coat protein; [4]) | apparent KD of K4 kissing-loop reporter ([1]; input ligand: FMN 200 uM) | apparent KD of K4 kissing-loop reporter ([1]; input ligand: arginine 13.2 mM) | apparent KD of K4 kissing-loop reporter ([1]; input ligand: none) | apparent KD of K4 kissing-loop reporter [1, 2] | apparent KD of K4 kissing-loop reporter [1, 4]
19 | AACAACUAGUCGGCCGCCACUCAUAAUACAUGAGGAUCACCCAUGUAUACUUGGUUUUUAUAUUUGAGGACCGGGACAGUUGCAU [JR_Nu_ExcTryptoB_Sub026] | 12.5 nM |  | 14.7 nM | 10.7 nM |  |  |  |  |  | 
20 | AACAUGAGGAUCACCCAUGUAAAAUGGGAUACCAGAGACGAAAGUCUCCCUUGGCAGCCCACUGCCUCCUUUACGAAAGUAGAGG [Theophylline A 15] | 29.8 nM |  | 32.5 nM |  | 38.3 nM |  |  |  |  | 
21 | AACAUGAGGAUCACCCAUGUAUUGGGUGAUACCAGCCUGAAUAAUGGCCCUUGGCAGCACCACGCUAACUUUAUGUCUGCGAACC [Maus] | 39.3 nM |  | 263 nM |  | 83.6 nM |  |  |  |  | 
22 | UUUAUAUAGUCGGCCGCCACUGAUUUUUUUAUAUGUUUAUGUUUAUACGAGUGAUGUUCGAUAUACAGGACCGGGACUUUUGUUA [JR_SSTryptoB_Sub018] |  |  |  |  |  | 186 nM | 237 nM | 238 nM | 294 nM | 180 nM
23 | UUUAUUAAGACGGCCGCCACUGAUUCAGAGUGAUGUUCUGAUAUUUUUUUAUAUAAUAAUAACAGCAGGACCGGGUCAAUUAUUA [JR_SSTryptoB_Sub013] |  |  |  |  |  | 225 nM | 237 nM | 233 nM | 272 nM | 192 nM
24 | UUUAUUAAGACGGCCGCCACUGAUUCAUAGUGAUGUUAUGAUAUAAUUUUAGUGAUGUGCAUUAGCAGGACCGGGUCAAUUAUUA [#28 K4 Tryptophan B Exclusion] |  |  |  |  |  | 125 nM | 108 nM | 120 nM | 94.7 nM | 101 nM
25 | UUUCAAAUUUAAGGAUAUUAGAUACCAGGAAAGGAGUGAUGUUCCGUGCUACGAUAGUGCUAGGGCUAAGAAGGUAAGUCUCGAG [theeternabot_sameState_KL_FMN_B_37] |  |  |  |  |  | 79.1 nM | 87.2 nM | 85.6 nM | 89.6 nM | 59.1 nM
26 | UUUCGUAGAAGUGAUACCAGACUGGAAAGUGAUGUUUUCCAAUUAUUUAAAUCCUUAUCUGUCCCUUGGCAGCACAGUUUAUUUA [JR_Nu_ExcTheophyB_Sub027] |  |  |  |  |  | 71.8 nM | 81.3 nM | 75.5 nM | 97.6 nM | 70 nM
27 | UUUCGUCUCUGAGGAUAUCAGAAUAGAGUGAUGUUCUAUCAAAGCCCAGUGAUGUUGGAUGCUAUCUGAGAAGGCAGUGGGCGAG [Same State FMN B GF 11] |  |  |  |  |  | 196 nM | 183 nM | 249 nM | 185 nM | 219 nM
28 | UUUCUACCGGGAAGGAGCGUGAAUGAUAAUGGAUAUAGUGAUGUUAUAUAUACGAACGAAUCGCAGGUAGGUCGCCCGGAUCACU [SSArgB.U] |  |  |  |  |  | 655 nM | 859 nM | 1470 nM | 1480 nM | 1090 nM
29 | UUUGGAAGCGGUGUUGAUUAGGGAGCGGAAGGAGCGCCGAUUAUGGCAGGUAGGUCGCCGGAAUGUAGUGAUGUUGCAUAGAGGU [ExArgA.X] |  |  |  |  |  | 185 nM | 130 nM | 240 nM | 273 nM | 128 nM
30 | UUUGGUUUCUCGGCCGCCACUCGUUGGUUAUGGGCCUCAGGGAUAUAGUGAUGUUAUGUAAAGAAGAGGACCGGGAGAAGGAAGG [ExTryptoB.Do] |  |  |  |  |  | 493 nM | 395 nM | 225 nM | 283 nM | 380 nM
31 | UUUGGUUUCUCGGCCGCCACUCGUUGGUUAUGGGCUUCAGGGAUAUAGUGAUGUUAUGUAUAGAAGAGGACCGGGAGAAGGAAGG [ExTryptoB.Dq] |  |  |  |  |  | 195 nM | 245 nM | 288 nM | 186 nM | 269 nM
32 | UUUGGUUUCUCGGCCGCCACUCGUUGUCUAUGGGCUUCAGGGAUAUAGUGAUGUUAUGUAUAGAAGAGGACCGGGAGAAGGUUUU [ExTryptoB.Dv] |  |  |  |  |  | 427 nM | 77.9 nM | 683 nM | 42.3 nM | 161 nM
33 | UUUUACGAGUGAUGUUCGUAUUGUAAUAGUUAGGAUAUCGUUUUUUCGAGAAGGAACUUCGAAGUGAUACGAAAGUAUCGCUUCG [FMN A 10] |  |  |  |  |  | 138 nM | 142 nM | 154 nM | 143 nM | 130 nM
34 | UUUUUAAUCGCAGAUACCAGUCCAGAAUAAAUACUAUAGUGAUGUUAUAUAUAAGGAAAGGACCCUUGGCAGCUGUACUAUAUUU [AstrosSsTheB#8] |  |  |  |  |  | 411 nM | 322 nM | 392 nM | 245 nM | 346 nM
35 | UUUUUGGAGAAUUAUAGUGAUGUUAUGAAGGAGGAUAUCUGGAGAUGGAGAAGGCCUAGUGGCUCAGCCCUCGAGGGUGGGUGGG [ExFMNA.aC] |  |  |  |  |  | 646 nM | 626 nM | 441 nM | 778 nM | 354 nM
